Source: the supplement of paper PMC10567573

B1: NCF4 (parent)
chain: FGPDSKSSALACTLPTLPAKVYVG
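Note: lentivirally expressed fusions sorted by FACS into six bins by GFP to DsRed ratio, PSI derived from sequencing read proportions per bin multiplied by bin number.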

Variants of: B1
Test: protein stability index of a GFP-peptide fusion (GPS, HEK-293T) (PSI 1-6); higher = more stable
Conditions: c terminus: a fixed tail appended
FGPDSQSSALACTLPTLPAKVYVG [K6Q] gave a protein stability index of 2.45. FGPDSSSSALACTLPTLPAKVYVG [K6S] gave a protein stability index of 2.41. Variant FGPDSRSSALACTLPTLPAKVYVG [K6R] has a protein stability index of 1.76. With FGPDSPSSALACTLPTLPAKVYVG [K6P] the protein stability index was 2.33. Work on FGPDSWSSALACTLPTLPAKVYVG [K6W] yielded a protein stability index of 3.06. In the case of FGPDSTSSALACTLPTLPAKVYVG [K6T], the protein stability index is reported as 2.78. With FGPDSVSSALACTLPTLPAKVYVG [K6V] the protein stability index was 2.07. Work on FGPDSYSSALACTLPTLPAKVYVG [K6Y] yielded a protein stability index of 1.43. Work on FGPDSKSSALECTLPTLPAKVYVG [A11E] yielded a protein stability index of 2.63. For FGPDSKSSALCCTLPTLPAKVYVG [A11C], the protein stability index was 2.35. In the case of FGPDSKSSALHCTLPTLPAKVYVG [A11H], the protein stability index is reported as 2.23. Variant FGPDSKSSALNCTLPTLPAKVYVG [A11N] has a protein stability index of 2.78. For FGPDSKSSALICTLPTLPAKVYVG [A11I], the protein stability index was 2.24. FGPDSKSSALKCTLPTLPAKVYVG [A11K] gave a protein stability index of 2.29. With FGPDSKSSALDCTLPTLPAKVYVG [A11D] the protein stability index was 2.99. Work on FGPDSKSSALFCTLPTLPAKVYVG [A11F] yielded a protein stability index of 2.4. FGPDSKSSALLCTLPTLPAKVYVG [A11L] showed a protein stability index of 2.18. FGPDSKSSALMCTLPTLPAKVYVG [A11M] showed a protein stability index of 2.86. Work on FGPDSKSSALPCTLPTLPAKVYVG [A11P] yielded a protein stability index of 2.17. For FGPDSKSSALGCTLPTLPAKVYVG [A11G], the protein stability index was 2.22. In the case of FGPDSKYSALACTLPTLPAKVYVG [S7Y], the protein stability index is reported as 1.06. FGPDSKTSALACTLPTLPAKVYVG [S7T] gave a protein stability index of 2.37. For FGPDSKDSALACTLPTLPAKVYVG [S7D], the protein stability index was 2.9. For FGPDSKWSALACTLPTLPAKVYVG [S7W], the protein stability index was 1.97. In the case of FGPDSKESALACTLPTLPAKVYVG [S7E], the protein stability index is reported as 2.72. FGPDSKPSALACTLPTLPAKVYVG [S7P] showed a protein stability index of 1.97. Variant FGPDSKKSALACTLPTLPAKVYVG [S7K] has a protein stability index of 2.35. With FGPDSKLSALACTLPTLPAKVYVG [S7L] the protein stability index was 2.07. Variant FGPDSKGSALACTLPTLPAKVYVG [S7G] has a protein stability index of 2.37. Work on FGPDSKRSALACTLPTLPAKVYVG [S7R] yielded a protein stability index of 2.35. For FGPDSKHSALACTLPTLPAKVYVG [S7H], the protein stability index was 1.57. FGPDSKQSALACTLPTLPAKVYVG [S7Q] gave a protein stability index of 3.06. In the case of FGPDSKFSALACTLPTLPAKVYVG [S7F], the protein stability index is reported as 2.9. Work on FGPDSKISALACTLPTLPAKVYVG [S7I] yielded a protein stability index of 1.56. FGPDSKVSALACTLPTLPAKVYVG [S7V] showed a protein stability index of 1.73. In the case of FGPDSKMSALACTLPTLPAKVYVG [S7M], the protein stability index is reported as 2.25. For FGPDSKNSALACTLPTLPAKVYVG [S7N], the protein stability index was 2.23. In the case of FGPDSKCSALACTLPTLPAKVYVG [S7C], the protein stability index is reported as 1.69. Variant FGPDSKASALACTLPTLPAKVYVG [S7A] has a protein stability index of 1.9. FGPDSKSSAHACTLPTLPAKVYVG [L10H] showed a protein stability index of 2.88. For FGPDSKSSANACTLPTLPAKVYVG [L10N], the protein stability index was 3.73. For FGPDSKSSAEACTLPTLPAKVYVG [L10E], the protein stability index was 3.65. In the case of FGPDSKSSAAACTLPTLPAKVYVG [L10A], the protein stability index is reported as 2.99. Variant FGPDSKSSADACTLPTLPAKVYVG [L10D] has a protein stability index of 3.99. With FGPDSKSSAKACTLPTLPAKVYVG [L10K] the protein stability index was 3.29. In the case of FGPDSKSSASACTLPTLPAKVYVG [L10S], the protein stability index is reported as 2.64. FGPDSKSSAIACTLPTLPAKVYVG [L10I] gave a protein stability index of 2.12. With FGPDSKSSAGACTLPTLPAKVYVG [L10G] the protein stability index was 2.93. With FGPDSKSSAVACTLPTLPAKVYVG [L10V] the protein stability index was 2.88. FGPDSKSSAMACTLPTLPAKVYVG [L10M] showed a protein stability index of 2.69. In the case of FGPDSKSSATACTLPTLPAKVYVG [L10T], the protein stability index is reported as 3.57. FGPDSKSSAQACTLPTLPAKVYVG [L10Q] gave a protein stability index of 2.95. FGPDSKSSAPACTLPTLPAKVYVG [L10P] gave a protein stability index of 3.58. In the case of FGPDSKSSACACTLPTLPAKVYVG [L10C], the protein stability index is reported as 2.69. Variant FGPDSKSSARACTLPTLPAKVYVG [L10R] has a protein stability index of 3.23. Work on FGPDSKSSAFACTLPTLPAKVYVG [L10F] yielded a protein stability index of 2.15. FGPDSKSSAYACTLPTLPAKVYVG [L10Y] gave a protein stability index of 1.86. FGPDSKSSHLACTLPTLPAKVYVG [A9H] showed a protein stability index of 2.23. For FGPDSKSSDLACTLPTLPAKVYVG [A9D], the protein stability index was 3.18. In the case of FGPDSKSSVLACTLPTLPAKVYVG [A9V], the protein stability index is reported as 2.25. Work on FGPDSKSSTLACTLPTLPAKVYVG [A9T] yielded a protein stability index of 2.44. Work on FGPDSKSSSLACTLPTLPAKVYVG [A9S] yielded a protein stability index of 2.23. Variant FGPDSKSSCLACTLPTLPAKVYVG [A9C] has a protein stability index of 1.74. Work on FGPDSKSSMLACTLPTLPAKVYVG [A9M] yielded a protein stability index of 1.9. In the case of FGPDSKSSYLACTLPTLPAKVYVG [A9Y], the protein stability index is reported as 1.5. FGPDSKSSWLACTLPTLPAKVYVG [A9W] showed a protein stability index of 2.52. With FGPDSKSSELACTLPTLPAKVYVG [A9E] the protein stability index was 3.67. Work on FGPDSKSSGLACTLPTLPAKVYVG [A9G] yielded a protein stability index of 1.67. With FGPDSKSSLLACTLPTLPAKVYVG [A9L] the protein stability index was 1.11. Work on FGPDSKSSQLACTLPTLPAKVYVG [A9Q] yielded a protein stability index of 2.46. FGPDSKSSPLACTLPTLPAKVYVG [A9P] gave a protein stability index of 1.57. Variant FGPDSKSSRLACTLPTLPAKVYVG [A9R] has a protein stability index of 2.29. Variant FGPDSKSSKLACTLPTLPAKVYVG [A9K] has a protein stability index of 1.89. For FGPDSKSSNLACTLPTLPAKVYVG [A9N], the protein stability index was 2.49. Variant FGPDSKSSILACTLPTLPAKVYVG [A9I] has a protein stability index of 1.86. FGPDSKSWALACTLPTLPAKVYVG [S8W] showed a protein stability index of 2.65. FGPDSKSAALACTLPTLPAKVYVG [S8A] gave a protein stability index of 2.32. In the case of FGPDSKSIALACTLPTLPAKVYVG [S8I], the protein stability index is reported as 2.44. For FGPDSKSKALACTLPTLPAKVYVG [S8K], the protein stability index was 1.85. In the case of FGPDSKSNALACTLPTLPAKVYVG [S8N], the protein stability index is reported as 2.32. With FGPDSKSGALACTLPTLPAKVYVG [S8G] the protein stability index was 2.77. FGPDSKSRALACTLPTLPAKVYVG [S8R] showed a protein stability index of 3.19. FGPDSKSHALACTLPTLPAKVYVG [S8H] showed a protein stability index of 1.67. Work on FGPDSKSQALACTLPTLPAKVYVG [S8Q] yielded a protein stability index of 2.29. For FGPDSKSFALACTLPTLPAKVYVG [S8F], the protein stability index was 2.86. FGPDSKSTALACTLPTLPAKVYVG [S8T] showed a protein stability index of 1.89. Variant FGPDSKSCALACTLPTLPAKVYVG [S8C] has a protein stability index of 2.44. FGPDSKSDALACTLPTLPAKVYVG [S8D] gave a protein stability index of 2.7. FGPDSKSMALACTLPTLPAKVYVG [S8M] gave a protein stability index of 2.08. FGPDSKSVALACTLPTLPAKVYVG [S8V] gave a protein stability index of 2.22. In the case of FGPDSKSPALACTLPTLPAKVYVG [S8P], the protein stability index is reported as 2.22. In the case of FGPDSKSEALACTLPTLPAKVYVG [S8E], the protein stability index is reported as 3.36. Work on FGPDSKSLALACTLPTLPAKVYVG [S8L] yielded a protein stability index of 1.98. FGPDSKSYALACTLPTLPAKVYVG [S8Y] showed a protein stability index of 4.4.
